Source: PMC6949598, “Structure-based mechanism of cysteine-switch latency and of catalysis by pappalysin-family metallopeptidases” (IUCrJ, 2020)

Target: T1, mature wild-type mirolysin (Tannerella forsythia, UniProt A0A0F7IPS1 55-331)
T1 construct: the model holds Pro58-Pro327; Holds one catalytic zinc and two calcium ions; disulfides Cys243-Cys271 and Cys262-Cys291; The promirolysin constructs were made in E. coli BL21 (DE3) as fusions with N-terminal GST and a PreScission site; also called mature mirolysin; CD; source: recombinant, prepared as previously described (Koneru et al., 2017)
Test: crystal structure; mature mirolysin incubated at 1:2 molar ratio with BFO_2662, which was cleaved; sitting drop, 4 °C, protein ~12 mg/ml in 5 mM Tris HCl, 50 mM NaCl, 5 mM CaCl2, pH 8.0; reservoir 40% ethanol, 5% PEG 1000, 0.1 M phosphate-citrate pH 4.2; 1.5 Å; one complex per asymmetric unit
Details: both partners purified

B1: tetradecapeptide K110-K123 of small lipoprotein BFO_2662 (peptide)
peptide: KRDPVYFIKLSTIK
notes: segment K110-K123 of small lipoprotein BFO_2662, Tannerella forsythia; numbered Lys1-Lys14 in the structure; only the first seven residues were assigned unambiguously from the map; A citrate (CIT-1) in sub-site S1 belongs to molecule B of the model but is no part of the peptide; also called Lys1-Lys14; product; source: cleavage product of BFO_2662, cut by mirolysin during crystallization …
  binding result: binds
